Laboratory results as given in patent US20230416378A1.

Biological target: recombinant human VEGF-A (human) (UniProt P15692)
Experiment: cell-based or functional assay

Sequence of recombinant human VEGF-A (human) (P15692 other isoform, or with tags, fused parts or gaps limits assumed): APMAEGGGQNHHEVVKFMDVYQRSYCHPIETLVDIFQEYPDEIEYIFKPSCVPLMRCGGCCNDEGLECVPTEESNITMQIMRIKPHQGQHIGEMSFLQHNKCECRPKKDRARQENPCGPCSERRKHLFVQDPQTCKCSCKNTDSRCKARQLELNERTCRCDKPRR

VEGF induced cell integrity loss IC50: 0.33 nM
Substance: Eylea (aflibercept), VEGF trap (Fc fusion)
